Results taken from the Human Domainome abundance scans (Beltran et al. 2025).
± gives the uncertainty stated by the source.

B1: Dynamin-binding protein, residues 242 to 304; numbered along this chain, Q6XZF7 (parent)
chain: EEPGTYGVALYRFQALEPNELDFEVGDKIRILATLEDGWLEGSLKGRTGIFPYRFVKLCPDTR

Variants of: B1
Assay: abundance fitness (aPCA) (normalised: wild type 0, dead -1); higher = more abundant; growth selection in yeast, the domain comes from the species named
Settings: Homo sapiens

Variant	abundance fitness
A33K	0.005 ± 0.12
A33T	-0.009 ± 0.078
A33M	-0.438 ± 0.24
A33P	-0.429 ± 0.24
A33F	-0.726 ± 0.11
G38A	-0.842 ± 0.12
G38W	-1.05 ± 0.28
G38V	-0.668 ± 0.074
G38P	-1.06 ± 0.34
G38M	-0.803 ± 0.23
A9W	-0.6 ± 0.22
A9L	-0.662 ± 0.1
Y6N	-0.785 ± 0.095
Y6K	-0.653 ± 0.2
Y6G	-0.696 ± 0.079
Y6E	-0.718 ± 0.2
Y6D	-0.754 ± 0.11
V25E	-0.475 ± 0.15
V25S	-0.448 ± 0.061
V25C	-0.328 ± 0.06
V25R	-0.223 ± 0.059
V25F	-0.573 ± 0.08
L10E	-0.655 ± 0.25
L10C	-0.477 ± 0.073

Variant	abundance fitness
L10F	-0.873 ± 0.12
L10Q	-0.564 ± 0.21
L10V	-0.252 ± 0.054
R47A	-0.552 ± 0.12
R47W	-0.676 ± 0.24
R47V	-0.477 ± 0.065
F55S	-0.348 ± 0.035
F55T	-0.472 ± 0.047
F55L	-0.126 ± 0.034
F55W	-0.374 ± 0.07
D27K	-0.902 ± 0.49
D27M	-0.537 ± 0.24
D27I	-0.786 ± 0.13
D27S	-0.695 ± 0.078
R12E	-0.469 ± 0.21
R12L	-0.637 ± 0.093
R12A	0.177 ± 0.06
R12F	-0.91 ± 0.13
R12K	-0.276 ± 0.17
R12Y	-0.834 ± 0.12
R12C	-0.477 ± 0.08
R12M	-0.589 ± 0.25
R12T	-0.237 ± 0.085
E20Q	0.069 ± 0.12

Variant	abundance fitness
E20P	-1.03 ± 0.35
E20N	-0.227 ± 0.071
E20S	-0.468 ± 0.059
E20F	0.155 ± 0.056
E20C	-0.014 ± 0.05
E20I	-0.65 ± 0.095
R30V	-0.73 ± 0.1
R30Y	-0.398 ± 0.085
R30L	-0.148 ± 0.089
R30E	-0.328 ± 0.25
R30W	-0.921 ± 0.24
E1A	-0.512 ± 0.13
E1L	-0.041 ± 0.087
E1F	-0.277 ± 0.11
E1T	-0.111 ± 0.1
E1G	-0.163 ± 0.067
E1D	-0.369 ± 0.081
V8N	-0.681 ± 0.12
V8E	-0.206 ± 0.15
V8Y	-0.028 ± 0.066
V8R	-0.302 ± 0.086
V8L	-0.192 ± 0.069
V8T	-0.047 ± 0.076
V8P	-0.865 ± 0.2

Variant	abundance fitness
V8S	-0.701 ± 0.096
L35Q	0.009 ± 0.23
L35V	-0.203 ± 0.05
L35R	0.13 ± 0.052
L35D	-0.664 ± 0.087
D61A	-0.095 ± 0.057
D61C	-0.112 ± 0.058
D61K	-0.096 ± 0.19
D61I	-0.237 ± 0.06
D61L	-0.185 ± 0.054
D61M	-0.144 ± 0.11
D61Y	-0.391 ± 0.057
D61T	-0.08 ± 0.077
G7C	0.231 ± 0.045
G7D	-0.857 ± 0.14
G7P	-0.86 ± 0.25
G7S	-0.292 ± 0.051
G42N	-0.891 ± 0.12
G42R	-0.84 ± 0.14
G42W	-0.506 ± 0.19
G42V	-0.575 ± 0.08
G42A	-0.702 ± 0.14
G42F	-0.745 ± 0.1
G42M	-0.987 ± 0.34

Variant	abundance fitness
P52W	-0.583 ± 0.22
P52Q	-0.912 ± 0.49
P52G	-0.534 ± 0.054
P52D	-0.817 ± 0.12
P52C	-0.7 ± 0.082
P52F	-0.826 ± 0.11
P52H	-0.734 ± 0.13
P52K	-0.794 ± 0.33
P52L	-0.567 ± 0.097
P52S	-0.85 ± 0.074
P52Y	-0.569 ± 0.11
F51N	-0.791 ± 0.094
F51S	-0.794 ± 0.081
F51T	-0.681 ± 0.11
F51V	-0.224 ± 0.055
F51P	-0.524 ± 0.14
F51L	-0.492 ± 0.079
F51A	-0.919 ± 0.14
L40Q	-0.312 ± 0.2
I50M	-0.298 ± 0.12
I50G	-0.823 ± 0.091
I50Y	-0.533 ± 0.073
Q14I	-0.188 ± 0.057
L16S	0.29 ± 0.048

Variant	abundance fitness
L16F	-0.067 ± 0.068
L16K	-0.077 ± 0.25
L16A	0.187 ± 0.064
L16I	0.03 ± 0.06
L16E	-0.027 ± 0.22
L16Q	0.284 ± 0.12
L16N	0.35 ± 0.054
L21S	-0.542 ± 0.078
L21T	-0.522 ± 0.09
L21N	-0.843 ± 0.28
L21G	-0.96 ± 0.13
L21H	-0.469 ± 0.13
L21V	-0.619 ± 0.097
D22P	0.157 ± 0.074
D22I	-0.913 ± 0.11
D22Q	0.148 ± 0.11
D22Y	-0.108 ± 0.051
D22R	-0.185 ± 0.058
D37Q	-0.298 ± 0.17
D37T	-0.361 ± 0.099
D37H	-0.274 ± 0.078
D37P	-0.476 ± 0.15
D37V	-0.561 ± 0.068
T5G	-0.765 ± 0.093

Variant	abundance fitness
T5N	-0.3 ± 0.081
T5I	-0.183 ± 0.065
T5K	-0.253 ± 0.16
T5Y	-0.214 ± 0.066
T5A	-0.083 ± 0.066
I29S	-0.776 ± 0.075
I29L	-0.573 ± 0.093
I29Q	-0.955 ± 0.41
I29H	-0.634 ± 0.11
I29F	-0.561 ± 0.078
I29G	-0.738 ± 0.087
T48R	-0.105 ± 0.062
T48C	-0.286 ± 0.062
T34D	-0.114 ± 0.052
T34G	-0.481 ± 0.06
T34N	-0.289 ± 0.064
T34S	-0.077 ± 0.047
T34H	0.067 ± 0.054
T34R	-0.196 ± 0.056
P60W	-0.274 ± 0.16
P60C	-0.15 ± 0.063
P60A	-0.059 ± 0.074
P60R	-0.245 ± 0.063
